Source: paper PMC5591277
pKd: −log10 of the molar value.

Columns and labels:
[1] = target: T1, Lhp1 (yeast La protein) (Saccharomyces cerevisiae) (UniProt P33399); test: EMSA; settings: Bmax 75%, 2',3'-cis-diol end, EMSA: 5 nM Cy3-U6, 100 mM KCl, 20% sucrose, 20 mM bis-tris/10 mM HCl, 1 mM EDTA, 1 mM TCEP, 0.01% Triton X-100, 0.1 mg/mL tRNA, 0.01 mg/mL heparin
T1 sequence: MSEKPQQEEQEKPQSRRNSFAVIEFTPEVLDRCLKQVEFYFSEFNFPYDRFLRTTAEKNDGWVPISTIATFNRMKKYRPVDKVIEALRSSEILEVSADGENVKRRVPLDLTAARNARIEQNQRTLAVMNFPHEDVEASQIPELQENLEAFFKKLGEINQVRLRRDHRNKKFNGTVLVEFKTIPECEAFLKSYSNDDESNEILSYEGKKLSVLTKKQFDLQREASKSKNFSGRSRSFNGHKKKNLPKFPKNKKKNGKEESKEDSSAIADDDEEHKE

[2] = target: T2, Lsm2-8 complex (Saccharomyces cerevisiae) (UniProt P38203+P57743+P40070+P40089+Q06406+P53905+P47093); test: EMSA; settings: Bmax 100%, EMSA: 5 nM Cy3-U6, 100 mM KCl, 20% sucrose, 20 mM bis-tris/10 mM HCl, 1 mM EDTA, 1 mM TCEP, 0.01% Triton X-100, 0.1 mg/mL tRNA, 0.01 mg/mL heparin
T2 sequence 1: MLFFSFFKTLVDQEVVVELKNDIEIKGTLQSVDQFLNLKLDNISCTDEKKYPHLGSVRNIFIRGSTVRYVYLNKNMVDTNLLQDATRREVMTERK
T2 sequence 2: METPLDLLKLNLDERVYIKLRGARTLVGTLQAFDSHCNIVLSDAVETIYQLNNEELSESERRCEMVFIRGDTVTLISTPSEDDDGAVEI
T2 sequence 3: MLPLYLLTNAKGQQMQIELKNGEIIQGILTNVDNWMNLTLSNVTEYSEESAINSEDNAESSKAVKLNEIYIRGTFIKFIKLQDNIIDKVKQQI
T2 sequence 4: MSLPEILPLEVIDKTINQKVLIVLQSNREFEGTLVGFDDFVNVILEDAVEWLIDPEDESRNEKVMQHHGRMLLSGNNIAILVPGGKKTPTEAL
T2 sequence 5: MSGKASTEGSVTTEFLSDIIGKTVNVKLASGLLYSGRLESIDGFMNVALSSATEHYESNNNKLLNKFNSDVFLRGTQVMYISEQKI
T2 sequence 6: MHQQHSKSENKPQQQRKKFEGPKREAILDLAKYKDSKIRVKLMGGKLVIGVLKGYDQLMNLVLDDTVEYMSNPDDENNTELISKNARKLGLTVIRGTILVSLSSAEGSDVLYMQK
T2 sequence 7: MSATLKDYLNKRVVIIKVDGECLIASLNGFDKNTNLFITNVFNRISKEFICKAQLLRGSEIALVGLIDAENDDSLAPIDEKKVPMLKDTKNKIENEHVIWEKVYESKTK

Substance | pKd [1] | pKd ([2]; 2',3'-cis-diol end) | pKd ([2]; 2',3'-cyclic phosphate)
U6 1-112 3'OH | 7.74 | 6.68 | –
U6 1-112+1U>p | – | – | 7.15
U6 1-112+1U 3'OH | 7.92 | 7.52 | –
